Data from patent publication US20090099029.

T1: Bovine, dephosphorylated, Myelin Basic Protein (MBP), P02687
T1 chain: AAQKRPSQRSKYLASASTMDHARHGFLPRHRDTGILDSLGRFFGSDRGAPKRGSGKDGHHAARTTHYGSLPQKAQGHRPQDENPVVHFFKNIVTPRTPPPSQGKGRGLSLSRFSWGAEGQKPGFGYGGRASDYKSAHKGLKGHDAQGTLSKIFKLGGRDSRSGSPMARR

B1: ZAP70 (protein)
chain: MPDPAAHLPFFYGSISRAEAEEHLKLAGMADGLFLLRQCLRSLGGYVLSLVHDVRFHHFPIERQLNGTYAIAGGKAHCGPAELCEFYSRDPDGLPCNLRKPCNRPSGLEPQPGVFDCLRDAMVRDYVRQTWKLEGEALEQAIISQAPQVEKLIATTAHERMPWYHSSLTREEAERKLYSGAQTDGKFLLRPRKEQGTYALSLIYGKTVYHYLISQDKAGKYCIPEGTKFDTLWQLVEYLKLKADGLIYCLKEACPNSSASNASGAAAPTLPAHPSTLTHPQRRIDTLNSDGYTPEPARITSPDKPRPMPMDTSVYESPYSDPEELKDKKLFLKRDNLLIADIELGCGNFGSVRQGVYRMRKKQIDVAIKVLKQGTEKADTEEMMREAQIMHQLDNPYIVRLIGVCQAEALMLVMEMAGGGPLHKFLVGKREEIPVSNVAELLHQVSMGMKYLEEKNFVHRDLAARNVLLVNRHYAKISDFGLSKALGADDSYYTARSAGKWPLKWYAPECINFRKFSSRSDVWSYGVTMWEALSYGQKPYKKMKGPEVMAFIEQGKRMECPPECPPELYALMSDCWIYKWEDRPDFLTVEQRMRACYYSLASKVEGPPGSTQKAEAACA
B2: ADRBK1(GRK2) (protein)
chain: MADLEAVLADVSYLMAMEKSKATPAARASKKILLPEPSIRSVMQKYLEDRGEVTFEKIFSQKLGYLLFRDFCLNHLEEARPLVEFYEEIKKYEKLETEEERVARSREIFDSYIMKELLACSHPFSKSATEHVQGHLGKKQVPPDLFQPYIEEICQNLRGDVFQKFIESDKFTRFCQWKNVELNIHLTMNDFSVHRIIGRGGFGEVYGCRKADTGKMYAMKCLDKKRIKMKQGETLALNERIMLSLVSTGDCPFIVCMSYAFHTPDKLSFILDLMNGGDLHYHLSQHGVFSEADMRFYAAEIILGLEHMHNRFVVYRDLKPANILLDEHGHVRISDLGLACDFSKKKPHASVGTHGYMAPEVLQKGVAYDSSADWFSLGCMLFKLLRGHSPFRQHKTKDKHEIDRMTLTMAVELPDSFSPELRSLLEGLLQRDVNRRLGCLGRGAQEVKESPFFRSLDWQMVFLQKYPPPLIPPRGEVNAADAFDIGSFDEEDTKGIKLLDSDQELYRNFPLTISERWQQEVAETVFDTINAETDRLEARKKAKNKQLGHEEDYALGKDCIMHGYMSKMGNPFLTQWQRRYFYLFPNRLEWRGEGEAPQSLLTMEEIQSVEETQIKERKCLLLKIRGGKQFILQCDSDPELVQWKKELRDAYREAQQLVQRVPKMKNKPRSPVVELSKVPLVQRGSANGL
B3: PTK2(FAK) (protein)
chain: MAAAYLDPNLNHTPNSSTKTHLGTGMERSPGAMERVLKVFHYFESNSEPTTWASIIRHGDATDVRGIIQKIVDSHKVKHVACYGFRLSHLRSEEVHWLHVDMGVSSVREKYELAHPPEEWKYELRIRYLPKGFLNQFTEDKPTLNFFYQQVKSDYMLEIADQVDQEIALKLGCLEIRRSYWEMRGNALEKKSNYEVLEKDVGLKRFFPKSLLDSVKAKTLRKLIQQTFRQFANLNREESILKFFEILSPVYRFDKECFKCALGSSWIISVELAIGPEEGISYLTDKGCNPTHLADFTQVQTIQYSNSEDKDRKGMLQLKIAGAPEPLTVTAPSLTIAENMADLIDGYCRLVNGTSQSFIIRPQKEGERALPSIPKLANSEKQGMRTHAVSVSETDDYAEIIDEEDTYTMPSTRDYEIQRERIELGRCIGEGQFGDVHQGIYMSPENPALAVAIKTCKNCTSDSVREKFLQEALTMRQFDHPHIVKLIGVITENPVWIIMELCTLGELRSFLQVRKYSLDLASLILYAYQLSTALAYLESKRFVHRDIAARNVLVSSNDCVKLGDFGLSRYMEDSTYYKASKGKLPIKWMAPESINFRRFTSASDVWMFGVCMWEILMHGVKPFQGVKNNDVIGRIENGERLPMPPNCPPTLYSLMTKCWAYDPSRRPRFTELKAQLSTILEEEKAQQEERMRMESRRQATVSWDSGGSDEAPPKPSRPGYPSPRSSEGFYPSPQHMVQTNHYQVSGYPGSHGITAMAGSIYPGQASLLDQTDSWNHRPQEIAMWQPNVEDSTVLDLRGIGQVLPTHLMEERLIRQQQEMEEDQRWLEKEERFLKPDVRLSRGSIDREDGSLQGPIGNQHIYQPVGKPDPAAPPKKPPRPGAPGHLGSLASLSSPADSYNEGVKLQPQEISPPPTANLDRSNDKVYENVTGLVKAVIEMSSKIQPAPPEEYVPMVKEVGLALRTLLATVDETIPLLPASTHREIEMAQKLLNSDLGELINKMKLAQQYVMTSLQQEYKKQMLTAAHALAVDAKNLLDVIDQARLKMLGQTRPH
B4: JAK3 (protein)
chain: ISSDYELLSDPTPGALAPRDGLWNGAQLYACQDPTIFEERHLKYISQLGKGNFGSVELCRYDPLGDNTGALVAVKQLQHSGPDQQRDFQREIQILKALHSDFIVKYRGVSYGPGRQSLRLVMEYLPSGCLRDFLQRHRARLDASRLLLYSSQICKGMEYLGSRRCVHRDLAARNILVESEAHVKIADFGLAKLLPLDKDYYVVREPGQSPIFWYAPESLSDNIFSRQSDVWSFGVVLYELFTYCDKSCSPSAEFLRMMGCERDVPALCRLLELLEEGQRLPAPPACPAEVHELMKLCWAPSPQDRPSFSALGPQLDMLWSGSRGCETHAFTAHPEGKHHSLSFS
B5: LYNA (protein)
chain: MGCIKSKGKDSLSDDGVDLKTQPVRNTERTIYVRDPTSNKQQRPVPESQLLPGQRFQTKDPEEQGDIVVALYPYDGIHPDDLSFKKGEKMKVLEEHGEWWKAKSLLTKKEGFIPSNYVAKLNTLETEEWFFKDITRKDAERQLLAPGNSAGAFLIRESETLKGSFSLSVRDFDPVHGDVIKHYKIRSLDNGGYYISPRITFPCISDMIKHYQKQADGLCRRLEKACISPKPQKPWDKDAWEIPRESIKLVKRLGAGQFGEVWMGYYNNSTKVAVKTLKPGTMSVQAFLEEANLMKTLQHDKLVRLYAVVTREEPIYIITEYMAKGSLLDFLKSDEGGKVLLPKLIDFSAQIAEGMAYIERKNYIHRDLRAANVLVSESLMCKIADFGLARVIEDNEYTAREGAKFPIKWTAPEAINFGCFTIKSDVWSFGILLYEIVTYGKIPYPGRTNADVMTALSQGYRMPRVENCPDELYDIMKMCWKEKAEERPTFDYLQSVLDDFYTATEGQYQQQP
B6: EPHA1 (protein)
chain: RSRRAQRQRQQRQRDRATDVDREDKLWLKPYVDLQAYEDPAQGALDFTRELDPAWLMVDTVIGEGEFGEVYRGTLRLPSQDCKTVAIKTLKDTSPGGQWWNFLREATIMGQFSHPHILHLEGVVTKRKPIMIITEFMENGALDAFLREREDQLVPGQLVAMLQGIASGMNYLSNHNYVHRDLAARNILVNQNLCCKVSDFGLTRLLDDFDGTYETQGGKIPIRWTAPEAIAHRIFTTASDVWSFGIVMWEVLSFGDKPYGEMSNQEVMKSIEDGYRLPPPVDCPAPLYELMKNCWAYDRARRPHFQKLQAHLEQLLANPHSLRTIANFDPRMTLRLPSLSGSDGIPYRTVSEWLESIRMKRYILHFHSAGLDTMECVLELTAEDLTQMGITLPGHQKRILCSIQGFKD
B7: TEC (protein)
chain: MNFNTILEEILIKRSQQKKKTSPLNYKERLFVLTKSMLTYYEGRAEKKYRKGFIDVSKIKCVEIVKNDDGVIPCQNKYPFQVVHDANTLYIFAPSPQSRDLWVKKLKEEIKNNNNIMIKYHPKFWTDGSYQCCRQTEKLAPGCEKYNLFESSIRKALPPAPETKKRRPPPPIPLEEEDNSEEIVVAMYDFQAAEGHDLRLERGQEYLILEKNDVHWWRARDKYGNEGYIPSNYVTGKKSNNLDQYEWYCRNMNRSKAEQLLRSEDKEGGFMVRDSSQPGLYTVSLYTKFGGEGSSGFRHYHIKETTTSPKKYYLAEKHAFGSIPEIIEYHKHNAAGLVTRLRYPVSVKGKNAPTTAGFSYEKWEINPSELTFMRELGSGLFGVVRLGKWRAQYKVAIKAIREGAMCEEDFIEEAKVMMKLTHPKLVQLYGVCTQQKPIYIVTEFMERGCLLNFLRQRQGHFSRDVLLSMCQDVCEGMEYLERNSFIHRDLAARNCLVSEAGVVKVSDFGMARYVLDDQYTSSSGAKFPVKWCPPEVFNYSRFSSKSDVWSFGVLMWEVFTEGRMPFEKYTNYEVVTMVTRGHRLYQPKLASNYVYEVMLRCWQEKPEGRPSFEDLLRTIDELVECEETFGR
B8: FES (protein)
chain: MGFSSELCSPQGHGVLQQMQEAELRLLEGMRKWMAQRVKSDREYAGLLHHMSLQDSGGQSRAISPDSPISQSWAEITSQTEGLSRLLRQHAEDLNSGPLSKLSLLIRERQQLRKTYSEQWQQLQQELTKTHSQDIEKLKSQYRALARDSAQAKRKYQEASKDKDRDKAKDKYVRSLWKLFAHHNRYVLGVRAAQLHHQHHHQLLLPGLLRSLQDLHEEMACILKEILQEYLEISSLVQDEVVAIHREMAAAAARIQPEAEYQGFLRQYGSAPDVPPCVTFDESLLEEGEPLEPGELQLNELTVESVQHTLTSVTDELAVATEMVFRRQEMVTQLQQELRNEEENTHPRERVQLLGKRQVLQEALQGLQVALCSQAKLQAQQELLQTKLEHLGPGEPPPVLLLQDDRHSTSSSEQEREGGRTPTLEILKSHISGIFRPKFSLPPPLQLIPEVQKPLHEQLWYHGAIPRAEVAELLVHSGDFLVRESQGKQEYVLSVLWDGLPRHFIIQSLDNLYRLEGEGFPSIPLLIDHLLSTQQPLTKKSGVVLHRAVPKDKWVLNHEDLVLGEQIGRGNFGEVFSGRLRADNTLVAVKSCRETLPPDLKAKFLQEARILKQYSHPNIVRLIGVCTQKQPIYIVMELVQGGDFLTFLRTEGARLRVKTLLQMVGDAAAGMEYLESKCCIHRDLAARNCLVTEKNVLKISDFGMSREEADGVYAASGGLRQVPVKWTAPEALNYGRYSSESDVWSFGILLWETFSLGASPYPNLSNQQTREFVEKGGRLPCPELCPDAVFRLMEQCWAYEPGQRPSFSTIYQELQSIRKRHR
B9: MATK(HYL) (protein)
chain: MQGHFPAERREGRPRRGTRGQQQLLVSPRFLRAWHPPPVSARMPTRRWAPGTQCITKCEHTRPKPGELAFRKGDVVTILEACENKSWYRVKHHTSGQEGLLAAGALREREALSADPKLSLMPWFHGKISGQEAVQQLQPPEDGLFLVRESARHPGDYVLCVSFGRDVIHYRVLHRDGHLTIDEAVFFCNLMDMVEHYSKDKGAICTKLVRPKRKHGTKSAEEELARAGWLLNLQHLTLGAQIGEGEFGAVLQGEYLGQKVAVKNIKCDVTAQAFLDETAVMTKMQHENLVRLLGVILHQGLYIVMEHVSKGNLVNFLRTRGRALVNTAQLLQFSLHVAEGMEYLESKKLVHRDLAARNILVSEDLVAKVSDFGLAKAERKGLDSSRLPVKWTAPEALKHGKFTSKSDVWSFGVLLWEVFSYGRAPYPKMSLKEVSEAVEKGYRMEPPEGCPGPVHVLMSSCWEAEPARRPPFRKLAEKLARELRSAGAPASVSGQDADGSTSPRSQEP

Target: T1, Bovine, dephosphorylated, Myelin Basic …
For B1, the “MBP Kinase Activity” value was “Negative”. For B2, the “MBP Kinase Activity” value was “Negative”. In the case of B3, the “MBP Kinase Activity” value is reported as “Negative”. With B4 the “MBP Kinase Activity” value was “Strong”. For B5, the “MBP Kinase Activity” value was “Weak”. B6 was tested, and the “MBP Kinase Activity” value was “Strong”. In the case of B7, the “MBP Kinase Activity” value is reported as “Negative”. In the case of B8, the “MBP Kinase Activity” value is reported as “Negative”. With B9 the “MBP Kinase Activity” value was “Negative”.
